Laboratory results as given in US10357539B2, “Use of peptides that block metadherin-SND1 interaction as treatment for cancer” (THE TRUSTEES OF PRINCETON UNIVERSITY, priority 2014, dated 2019).
Where a chain is given by its changes, count along the chain named. Names may count otherwise.

B1: R255E: SND1 mutant R255E (protein, listed as Homo sapiens)
chain: MASSAQSGGSSGGPAVPTVQRGIIKMVLSGCAIIVRGQPRGGPPPERQINLSNIRAGNLARRAAATQPDAKDTPDEPWAFPAREFLRKKLIGKEVCFTIENKTPQGREYGMIYLGKDTNGENIAESLVAEGLATRREGMRANNPEQNRLSECEEQAKAAKKGMWSEGNGSHTIRDLKYTIENPRHFVDSHHQKPVNAIIEHVRDGSVVRALLLPDYYLVTVMLSGIKCPTFRREADGSETPEPFAAEAKFFTESELLQRDVQIILESCHNQNILGTILHPNGNITELLLKEGFARCVDWSIAVYTRGAEKLRAAERFAKERRLRIWRDYVAPTANLDQKDKQFVAKVMQVLNADAIVVKLNSGDYKTIHLSSIRPPRLEGENTQDKNKKLRPLYDIPYMFEAREFLRKKLIGKKVNVTVDYIRPASPATETVPAFSERTCATVTIGGINIAEALVSKGLATVIRYRQDDDQRSSHYDELLAAEARAIKNGKGLHSKKEVPIHRVADISGDTQKAKQFLPFLQRAGRSEAVVEYVFSGSRLKLYLPKETCLITFLLAGIECPRGARNLPGLVQEGEPFSEEATLFTKELVLQREVEVEVESMDKAGNFIGWLHIDGANLSVLLVEHALSKVHFTAERSSYYKSLLSAEEAAKQKKEKVWAHYEEQPVEEVMPVLEEKERSASYKPVFVTEITDDLHFYVQDVETGTQLEKLMENMRNDIASHPPVEGSYAPRRGEFCIAKFVDGEWYRARVEKVESPAKIHVFYIDYGNREVLPSTRLGTLSPAFSTRVLPAQATEYAFAFIQVPQDDDARTDAVDSVVRDIQNTQCLLNVEHLSAGCPHVTLQFADSKGDVGLGLVKEGLVMVEVRKEKQFQKVITEYLNAQESAKSARLNLWRYGDFRADDADEFGYSR
B2: F250A: SND1 mutant F250A (protein, listed as Homo sapiens)
chain: B1 chain with F250A, E255R
B3: Δ39-43: SND1 with deletion in the SN1 Lβ2-β3 loop (Δ39-43) (protein)
chain: VPTVQRGIIKMVLSGCAIIVRGQPPERQINLSNIRAGNLARRAAATQPDAKDTPDEPWAFPAREFLRKKLIGKEVCFTIENKTPQGREYGMIYLGKDTNGENIAESLVAEGLATRREGMRANNPEQNRLSECEEQAKAAKKGMWSEGNGSHTIRDLKYTIENPRHFVDSHHQKPVNAIIEHVRDGSVVRALLLPDYYLVTVMLSGIKCPTFRREADGSETPEPFAAEAKFFTESRLLQRDVQIILESCHNQNILGTILHPNGNITELLLKEGFARCVDWSIAVYTRGAEKLRAAERFAKERRLRIWRDYVAPTANLDQK
modifications: left off: small tags and cut ends
B4: R324E: SND1 mutant R324E (protein, listed as Homo sapiens)
chain: B1 chain with E255R, R324E
B5: R316E: SND1 mutation located outside the interface, negative control (protein)
chain: VPTVQRGIIKMVLSGCAIIVRGQPRGGPPPERQINLSNIRAGNLARRAAATQPDAKDTPDEPWAFPAREFLRKKLIGKEVCFTIENKTPQGREYGMIYLGKDTNGENIAESLVAEGLATRREGMRANNPEQNRLSECEEQAKAAKKGMWSEGNGSHTIRDLKYTIENPRHFVDSHHQKPVNAIIEHVRDGSVVRALLLPDYYLVTVMLSGIKCPTFRREADGSETPEPFAAEAKFFTESRLLQRDVQIILESCHNQNILGTILHPNGNITELLLKEGFARCVDWSIAVYTRGAEKLRAAEEFAKERRLRIWRDYVAPTANLDQK
modifications: left off: small tags and cut ends
notes: SND1 mutation located outside the interface, negative control
B6: WT HA-SND1: full-length HA-tagged wild-type human SND1 (protein)
chain: B1 chain with E255R
B7: R324A: SND1 mutant R324A (protein)
chain: B5 chain with E301R, R309A
modifications: left off: small tags and cut ends

biological target: T1, Myc-MTDH (Homo sapiens, UniProt Q86UE4, A78S/T317A); assay: Co-immunoprecipitation of HA-SND1 (WT or mutant) with Myc-MTDH in HEK293T cells; format: cell-based; conditions: HEK293T cell lysates
T1 construct: Full-length HA-tagged SND1 was co-expressed with full-length Myc-tagged wild-type (WT) or mutant MTDH in HEK293T cells; expressed in transfected cells; host or cells: HEK293T
T1 sequence (Q86UE4 1-582 A78S/T317A): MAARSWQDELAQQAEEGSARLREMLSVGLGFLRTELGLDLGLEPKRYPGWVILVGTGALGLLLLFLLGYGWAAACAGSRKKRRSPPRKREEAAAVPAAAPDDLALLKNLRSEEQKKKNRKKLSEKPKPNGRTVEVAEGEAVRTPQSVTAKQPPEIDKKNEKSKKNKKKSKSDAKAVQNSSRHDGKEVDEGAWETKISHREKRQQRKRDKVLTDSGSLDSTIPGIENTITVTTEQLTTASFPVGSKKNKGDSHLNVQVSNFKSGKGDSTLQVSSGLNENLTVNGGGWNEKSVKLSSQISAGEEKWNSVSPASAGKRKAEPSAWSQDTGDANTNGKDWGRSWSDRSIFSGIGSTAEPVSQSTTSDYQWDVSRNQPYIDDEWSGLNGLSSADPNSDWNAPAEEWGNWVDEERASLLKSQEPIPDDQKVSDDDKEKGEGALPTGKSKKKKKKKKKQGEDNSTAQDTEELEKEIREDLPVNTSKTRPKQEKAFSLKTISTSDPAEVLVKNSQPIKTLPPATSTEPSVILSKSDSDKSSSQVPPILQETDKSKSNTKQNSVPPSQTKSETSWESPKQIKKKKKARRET
From the text: (§1) (FIG. 22A) In vitro pull-down of SND1 (16-339) by GST-tagged MTDH (364-582) harboring WT or mutant sequence. The proteins bound to GS4B were examined on SDS-PAGE and visualized by Coomassie blue staining. (FIG. 22B) In vitro pull-down of WT and mutant SND1 (16-339) by GST-tagged MTDH (364-582). The bound proteins were examined as in (FIG. 22A). For both (FIG. 22A) and (FIG. 22B), experiments were repeated three times; representative results are shown. The normalized percentage of binding was averaged from three experiments; mean±SEM was shown below the data. (FIG. 22C) HEK293T cells were transfected with human HA-SND1, WT Myc-MTDH or Myc-MTDH with indicated single point mutation. Lysates were immunoprecipitated with anti-Myc antibody and immunoblotted with the indicated antibodies. (FIG. 22D) HEK293T cells were transfected with human Myc-MTDH, WT HA-SND1 or mutant HA-SND1 with indicated single point mutations or deletions. Lysates were immunoprecipitated with anti-Myc and immunoblotted with the indicated antibodies.
Immunoprecipitation and western blot: For in vivo immunoprecipitation (IP) experiments, cultured cells were washed in cold PBS and lysed in lysis buffer (20 mM Tris pH 7.4, 0.15 M NaCl, 1 mM EDTA, 1 mM EGTA, 1% Tx-100, 0.0025 M Na2P2O7, 1 mM β-glycerolphosphate, 1 mM Na3VO4, and 1 mM NaF) with an EDTA-free protease inhibitor mixture (Roche Applied Science) and PMSF. Cell lysates were then incubated on ice for 10 min, centrifuged, and precleared by incubating with protein A/G beads (Santa Cruz Biotechnology) for 1 h at 4° C. For IP bead preparation, 30 μl of protein A/G beads were incubated with 5 μg of antibodies for 2 h at 4° C. IPs were carried out for overnight at 4° C., and beads were centrifuged, washed and subsequently boiled for 5 min in SDS protein loading buffer to elute bound protein. IP lysates were subjected to western blotting with indicated antibodies.

Row | Molecule | interaction of full-length HA-SND1 (WT or mutant) with Myc-MTDH
1 | B1 | nearly completely abolished MTDH-binding
2 | B2 | nearly completely abolished MTDH-binding
3 | B3 | nearly completely abolished MTDH-binding
4 | B4 | significantly reduced the binding
5 | B5 | bound readily with Myc-MTDH
6 | B6 | bound readily with Myc-MTDH

biological target: T2, MTDH (364-582) (Homo sapiens, UniProt Q86UE4); assay: GST-mediated pull-down of SND1 constructs and mutants by GST-tagged MTDH (364-582); format: binding; conditions: SND1 mutants in SND1 (16-339)
T2 construct: made in house; host or cells: E. coli DH5α
T2 sequence (Q86UE4 364-582): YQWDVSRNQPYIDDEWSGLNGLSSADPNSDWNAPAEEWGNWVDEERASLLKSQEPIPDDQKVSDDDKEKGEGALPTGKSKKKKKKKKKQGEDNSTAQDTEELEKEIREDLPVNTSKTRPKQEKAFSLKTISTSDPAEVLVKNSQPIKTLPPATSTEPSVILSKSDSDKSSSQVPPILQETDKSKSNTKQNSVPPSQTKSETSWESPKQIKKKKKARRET
From the text: as §1
GST-Mediated Pull-Down Assay: ˜20 μg of GST-MTDH (different truncation forms and site mutants) was bound to 10 μl of glutathione resin via GST tag. The resin was washed with 200 μl assay buffer (25 mM Tris, PH8.0, 150 mM NaCl, 3 mM DTT) three times to remove the excess unbound protein. 15 μg of His-SND1 (16-339) was added to the resin in a 100 μl volume suspended in the assay buffer with 2 mg/ml of BSA. The mixture was washed with 200 μl assay buffer twice before examined by SDS-PAGE, and visualized by Coomassie blue staining. The experiments were repeated 3 times and the ratio of SND1 associated with GST-MTDH was analyzed by ImageJ.

Row | Molecule | MTDH-binding of SND1 domains and mutants, in vitro
7 | B1 | almost completely abolished MTDH-binding
8 | B2 | almost completely abolished MTDH-binding
9 | B3 | almost completely abolished MTDH-binding
10 | B4 | significantly weakened the MTDH-binding
11 | B7 | barely affected MTDH-binding
12 | B5 | barely affected MTDH-binding
